These results are taken from paper PMC10504544, “1-deoxy-D-xylulose-5-phosphate synthase from Pseudomonas aeruginosa and Klebsiella pneumoniae reveals conformational changes upon cofactor binding” (The Journal of Biological Chemistry, 2023).

In general, Km refers to the substrate concentration at which the rate is half of its maximum.

In data set [1] the test system is Cc1ncc(C[n+]2csc(CCO[P@](=O)(O)OP(=O)(O)O)c2C)c(N)n1. Nature of the data set: steady-state kinetics (Km). It is filed as biochemical, Klebsiella pneumoniae. The settings on record: Mg2+ active site; diphosphate in asparagine-rich region with H bond from Ser52; varied: cofactor.
The subject of the next data set is CC(=O)C(=O)O. In words: steady-state kinetics (Km), IspC-coupled assay. It is filed as biochemical, Klebsiella pneumoniae. The settings on record: ThDP, Mg2+.
The next data set deals with O=CC(O)COP(=O)(O)O. Nature of the data set: steady-state kinetics (Km), IspC-coupled assay. The class given is biochemical, Klebsiella pneumoniae. The settings on record: ThDP, Mg2+.
The subject of data set [2] is Cc1ncc(C[n+]2csc(CCO[P@](=O)(O)OP(=O)(O)O)c2C)c(N)n1. Nature of the data set: purified protein. The class given is biochemical, Pseudomonas aeruginosa. The settings on record: varied: cofactor.

On to “1-deoxy-D-xylulose-5-phosphate synthase (kpDXPS) (Klebsiella pneumoniae subsp. pneumoniae MGH 78578; DEL197-240/INS196GGGGGG)”, for which the Km is 0.11 ± 0.017 µM in data set [1], 113 ± 34 µM in the data set on CC(=O)C(=O)O and 170 ± 43 µM with O=CC(O)COP(=O)(O)O.

In the case of “1-deoxy-D-xylulose-5-phosphate synthase (paDXPS) (Pseudomonas aeruginosa LESB58; DEL206-245/INS205GGGGGG)”, in data set [2], the Km was 0.0965 ± 0.014 µM.
